According to paper PMC9729238 (Communications Biology, 2022):

B1: Weak toxin from Naja kaouthia venom (WTX), recombinant analog (natural protein)
chain: MLTCLNCPEMFCGKFQICRNGEKICFKKLHQRRPLSWRYIRGCADTCPVGKPYEMIECCSTDKCNR
modifications: disulfide (positions not given here); also: five disulfide bonds, pairing not given here

Tests used:
[1] = target: Chimera of the α7-nAChR extracellular domain with acetylcholine-binding protein (α7-ECD) (human α7-nAChR / Lymnaea stagnalis AChBP chimera); test: cryo-EM structure
[2] = target: T1, Nicotinic acetylcholine receptor of α7 type (α7-nAChR) expressed in HEK293 cells (UniProt P36544 23-502); test: flow cytometry on cells; details: one partner purified
T1 construct: also called full-length α7 receptor; α7 receptor

Molecule | stoichiometry N [1] | IC50 [2]
Chimera of the α7-nAChR extracellular domain with acetylcholine-binding protein (α7-ECD) (domain or fragment) | 5 | 
B1 |  | 26 ± 4 µM
